From patent US7700353B2, “Compositions and methods for inducing apoptosis in tumor cells” (E-P Therapeutics, Inc., priority 1998, dated 2010)

Columns and labels:
[1] = system: chorioallantoic membrane (CAM) of chick embryos; test: Chick embryo chorioallantoic membrane (CAM) angiogenesis assay; assay type: in vivo; details: day 7
Method: A suitable assay is the chick embryo chorioallantoic membrane (CAM) assay described by Crum et al. Science 230:1375 (1985). See also, U.S. Pat. No. 5,001,116, hereby incorporated by reference, which describes the CAM assay. Briefly, the Ea-4 peptide (40 µg and 80 µg), endostatin (5 µg and 10 µg) and a PBS control buffer were delivered onto the chorioallantoic membrane (CAM) of three-day old chick embryos. The CAMs were photographed in ovo with a digital camera on day 7. The angiogenic response was assessed by counting the number of intersect points of the blood vessels spread out in a defined field (vessel density). […] The effect is quantified in the histogram in FIG. 17.
Each were dissolved in PBS, and various and known amounts of hEb-peptide (250 µg, 500 µg and 1000 µg respectively) and human endostatin (10 µg and 20 µg respectively) were applied to the CAM. Pictures were taken on day 7 for vessel density determination.

[2] = system: MDA-MB-231 cells on chicken CAM; test: Human breast cancer cells seeded on chicken CAM; assay type: in vivo; details: single or multiple doses, five day old chicken embryos
Source text: The invasion of MDA-MB-231 cells in the chicken embryos was further confirmed by immunocytochemistry. […] The activity in the widely accepted chicken model, provides ample support for the belief that the methods of the invention can be used to treat cancer in animals as well as humans.

[3] = system: ZR75-1 and MDA-MB 231 cell lines (single-cell clones); test: Morphological change in single-cell malignant clones; assay type: cell-based, human
Method: Because each of these tumor cell lines obtained from ATCC contains a mixed population of tumorous and nontumorous cells, only between 25-40% of the cells from each cell line responded to induction by rtEa-4-peptide. […] About 1 -2×10^5 cells resuspended in their respective basal medium without FBS were plated in a 6-well culture chamber. Different amounts of trout Ea-4-peptide (0.4 µM, 0.8 µM and 1.6 µM) or control protein (1.6 µM) were added to the wells, and the cell cultures were incubated at 37° C. under a humidified atmosphere of 5% CO2. Twenty-four hours after initiation of the treatment, cells were observed under an Olympic inverted microscope equipped with phase contrast objective lenses (200× magnification).

[4] = system: Caspase-3 mRNA in SKOV-3(A); test: Induction of caspase-3 mRNA; assay type: cell-based, human
Source text: (§1) Induction of caspase-3 has been widely used as an indicator of cells undergoing apoptosis.

[5] = system: Caspase-3 mRNA in MDA-MB-231; test: Induction of caspase-3 mRNA; assay type: cell-based, human
Source text: as §1

[6] = system: MCF-7, HT-29, HepG2, ZR-75-1, SK-N-F1, or HC cells; test: Morphological change assay in tumor cell lines; assay type: cell-based, human and fish
Method: Approximately 1-2×10^5 of MCF-7, ZR-75-1, HT-29, HepG2, 293GP, HC or SK-N-F1 cells re-suspended in their respective basal medium without fetal bovine serum (FBS) were plated in a 6-well culture chamber. Prior to plating cells, an acid-washed coverslip was placed in each well of the culture chamber. Recombinant rainbow trout E-peptides (rtEa-2, rtEa-3 or rtEa-4 peptide at 0.8 µM), human IGF-I (hIGF-1, 2.5 nM) or the same amount of control protein was added to each well and the cell cultures were incubated at 37° C. under a humidified atmosphere of 5% CO2. The control protein was prepared from E. coli cells carrying the expression plasmid but without the E-peptide gene according to the purification method described by Tian et al. (1999). Coverslips were removed from the culture chamber 24 hours after initiation of the treatment and observed under an Olympic inverted microscope equipped with differential interference phase contrast objective lenses or phase contrast objective lens (final magnification, 200×). The morphological change assay was performed at least 10 times with different batches of Ea-4 peptide preparations.
Oncogenic transformed or established cancer cells derived from human and fish (MCF-7, HT-29, HepG2, ZR-75-1, SK-N-F1, or HC cells) were plated in their respective serum-free basal medium supplemented with 0.8 µM of the trout recombinant Ea-4-peptide, with the control protein, or with 2.5 nM of the recombinant hlGF-I and the cultures were examined 24 hours later under an inverted microscope equipped with differential interference phase contrast objectives. […] The rtEa-4 peptide treated cells developed several pseudopodia-like structures to establish contact with neighboring cells similar to that seen in untransformed or non-malignant cells.
Because each of these tumor cell lines obtained from ATCC contains a mixed population of tumorous and nontumorous cells, only between 25-40% of the cells from each cell line responded to induction by rtEa-4-peptide. […]

[7] = system: activated caspase-3 in MDA-MB-231(C); test: Activated caspase-3 staining; assay type: cell-based, human; details: about 1.5 μM, about 48 hours
Method: FIG. 24 depicts the effect of rtEa4-peptide on induction of apoptosis in MDA-MB-231 cells treated with rtEa4-peptide. (A) Detection of apoptosis by TUNEL assay; (B) Detection of apoptosis y detecting the induction of the activated caspase-3 activity. MDA-MB-231 cells were treated with about 1.5 μM of rtEa4-peptide for about 48 hours, fixed and subjected to TUNEL assay or stained with anti-human activated caspase-3 serum conjugated with rhodamine. Hydrogen peroxide (H2O2), 0.5 mM, was used to induce apoptosis as a positive control.
as §1

[8] = system: HT1080 cells; test: Matrigel invasion assay; assay type: cell-based, human; details: for # invaded cells/view (MIC): Matrigel insert; for # invaded cells/view (MIC) / # invaded cells/view (CIC): 24 hours; for # invaded cells/view (CIC): control insert
Method: Invasion assays were conducted in BIOCOAT MATRIGEL invasion chambers following the procedure provided by Becton Dickinson Labware (Bedford, Mass.; 40480 and 40481 guidelines). According to these procedures, 1×10^6 of HT1080 cells in DMEM supplemented with 1.25% FBS, with Ea-4 peptide (0.17 µM and 0.34 µM), or the same amount of the control protein, were plated in each insert of the Matrigel or control invasion chambers. The inserts were placed in the respective chambers containing DMEM medium supplemented with 10% FBS, and the chambers were incubated at 37° C. under a humidified atmosphere of 5% CO2 for 24 hours. After removal of the non-invaded cells with cotton swabs, the invaded cells on the other side of the membranes were stained with the Diff-Quick T stain (Becton Dickinson Labware, Bedford, Mass.) and observed under an Olympic inverted microscope (magnification, 200×). Control proteins were prepared from E. coli cells carrying the expression plasmid without the Ea-4-peptide gene by the same purification method (Tian et al., 1999). The assay was repeated three times.

B1: hEb: chemically synthesized human Eb peptide of pro-IGF-I, 77 amino acid residues (SEQ ID NO:1) (peptide, listed as Homo sapiens)
chain: RSVRAQRHTDMPKTQKYQPPSTNKNTKSQRRKGWPKTHPGGEQKEGTEASLQIRGKKKEQRREIGSRNAECRGKKGK
- vessel density ([1]; 250, 500 and 1000 μg on CAM): dose-dependent reduction
- growth and invasion of MDA-MB-231 cells and induction of blood vessel formation on chicken CAM [2]: inhibited

B2: rtEa-4: recombinant Ea-4 peptide of rainbow trout pro-IGF-I, 74 amino acid residues (SEQ ID NO: 2) (protein)
chain: RSVRAQRHTDMPRTPKVSTAVQNVDRGTERRTAQHPDKTKTKKKPLSGHSHPSCKEVHQKNSSRGNTGGRNYRM
modifications: Oncorhynchus mykiss
- extent of the morphological change ([3]; 0.4 to 1.6 μM): proportional to the amounts
- cells responsive to treatment ([3]; purified single-cell clones, 0.4-1.6 μM, 24 hours): ~95%
- Caspase-3 mRNA ([4]; 0.04 μM): 3.0 × 10^5 ± # molecules / μg total RNA
- Caspase-3 mRNA ([4]; 0.20 μM): 2.5 × 10^5 ± # molecules / μg total RNA
- Caspase-3 mRNA ([4]; 1.00 μM): 3.7 × 10^5 ± # molecules / μg total RNA
- Caspase-3 mRNA ([4]; 5.00 μM): 2.2 × 10^5 ± # molecules / μg total RNA
- Caspase-3 mRNA ([5]; 0.04 μM): 3.9 × 10^5 ± 3.8 × 10^4 molecules / μg total RNA
- Caspase-3 mRNA ([5]; 0.20 μM): 3.4 × 10^5 ± 3.1 × 10^4 molecules / μg total RNA
- Caspase-3 mRNA ([5]; 1.00 μM): 4.6 × 10^5 ± 9.5 × 10^4 molecules / μg total RNA
- Caspase-3 mRNA ([5]; 5.00 μM): 5.8 × 10^5 ± 1.3 × 10^4 molecules / μg total RNA
- blood vessel branching ([1]; 40 μg and 80 μg on CAM of three-day old chick embryos): inhibitory effect
- morphological change ([6]; 0.8 μM, 24 hours, serum-free basal medium): flattened out and attached tightly to the culture dish
- cells from each cell line responding to induction ([6]; mixed population cell lines from ATCC): 25-40%
- level of activated caspase-3 activity [7]: induced
- growth and invasion of MDA-MB-231 cells and induction of blood vessel formation on chicken CAM [2]: inhibited
- % Invasion ([8]; 0.17 μM): 19%
- % Reduction of invasion ([8]; 0.17 μM): 52%
- # invaded cells/view (MIC) ([8]; 0.17 μM): 30 ± 5 cells/view
- # invaded cells/view (CIC) ([8]; 0.17 μM): 157 ± 6 cells/view
- % Invasion ([8]; 0.34 μM): 15%
- % Reduction of invasion ([8]; 0.34 μM): 62%
- # invaded cells/view (MIC) ([8]; 0.34 μM): 24 ± 1 cells/view
- # invaded cells/view (CIC) ([8]; 0.34 μM): 157 ± 6 cells/view
- invasive activity ([8]; 0.17 and 0.34 μM): dose-dependent reduction
